Measured values reported in PMC10873202, “Structural mechanisms of autoinhibition and substrate recognition by the ubiquitin ligase HACE1” (Nature Structural & Molecular Biology, 2024).

B1: HACE1 L8A (enzyme, human, UniProt Q8IYU2 1-909, looked up)
chain: MERAMEQANRLTRSLRRARTVELPEDNETAVYTLMPMVMADQHRSVSELLSNSKFDVNYAFGRVKRSLLHIAANCGSVECLVLLLKKGANPNYQDISGCTPLHLAARNGQKKCMSKLLEYSADVNICNNEGLTAIHWLAVNGRTELLHDLVQHVSDVDVEDAMGQTALHVACQNGHKTTVQCLLDSGADINRPNVSGATPLYFACSHGQRDTAQILLLRGAKYLPDKNGVTPLDLCVQGGYGETCEVLIQYHPRLFQTIIQMTQNEDLRENMLRQVLEHLSQQSESQYLKILTSLAEVATTNGHKLLSLSSNYDAQMKSLLRIVRMFCHVFRIGPSSPSNGIDMGYNGNKTPRSQVFKPLELLWHSLDEWLVLIATELMKNKRDSTEITSILLKQKGQDQDAASIPPFEPPGPGSYENLSTGTRESKPDALAGRQEASADCQDVISMTANRLSAVIQAFYMCCSCQMPPGMTSPRFIEFVCKHDEVLKCFVNRNPKIIFDHFHFLLECPELMSRFMHIIKAQPFKDRCEWFYEHLHSGQPDSDMVHRPVNENDILLVHRDSIFRSSCEVVSKANCAKLKQGIAVRFHGEEGMGQGVVREWFDILSNEIVNPDYALFTQSADGTTFQPNSNSYVNPDHLNYFRFAGQILGLALNHRQLVNIYFTRSFYKHILGIPVNYQDVASIDPEYAKNLQWILDNDISDLGLELTFSVETDVFGAMEEVPLKPGGGSILVTQNNKAEYVQLVTELRMTRAIQPQINAFLQGFHMFIPPSLIQLFDEYELELLLSGMPEIDVSDWIKNTEYTSGYEREDPVIQWFWEVVEDITQEERVLLLQFVTGSSRVPHGGFANIMGGSGLQNFTIAAVPYTPNLLPTSSTCINMLKLPEYPSKEILKDRLLVALHCGSYGYTMA
notes: HACE1, human, full-length variant; also called Leu8 substituted with alanine; source: E. coli BL21(DE3), purified (IMAC, tag removal, SEC); not shown: His6 (pSKB2) or His10-tandem Z (pN-HZ10-ZZ(3)), N-terminal, cleaved
B2: HACE1 T12E (enzyme, human, UniProt Q8IYU2 1-909, looked up)
chain: MERAMEQLNRLERSLRRARTVELPEDNETAVYTLMPMVMADQHRSVSELLSNSKFDVNYAFGRVKRSLLHIAANCGSVECLVLLLKKGANPNYQDISGCTPLHLAARNGQKKCMSKLLEYSADVNICNNEGLTAIHWLAVNGRTELLHDLVQHVSDVDVEDAMGQTALHVACQNGHKTTVQCLLDSGADINRPNVSGATPLYFACSHGQRDTAQILLLRGAKYLPDKNGVTPLDLCVQGGYGETCEVLIQYHPRLFQTIIQMTQNEDLRENMLRQVLEHLSQQSESQYLKILTSLAEVATTNGHKLLSLSSNYDAQMKSLLRIVRMFCHVFRIGPSSPSNGIDMGYNGNKTPRSQVFKPLELLWHSLDEWLVLIATELMKNKRDSTEITSILLKQKGQDQDAASIPPFEPPGPGSYENLSTGTRESKPDALAGRQEASADCQDVISMTANRLSAVIQAFYMCCSCQMPPGMTSPRFIEFVCKHDEVLKCFVNRNPKIIFDHFHFLLECPELMSRFMHIIKAQPFKDRCEWFYEHLHSGQPDSDMVHRPVNENDILLVHRDSIFRSSCEVVSKANCAKLKQGIAVRFHGEEGMGQGVVREWFDILSNEIVNPDYALFTQSADGTTFQPNSNSYVNPDHLNYFRFAGQILGLALNHRQLVNIYFTRSFYKHILGIPVNYQDVASIDPEYAKNLQWILDNDISDLGLELTFSVETDVFGAMEEVPLKPGGGSILVTQNNKAEYVQLVTELRMTRAIQPQINAFLQGFHMFIPPSLIQLFDEYELELLLSGMPEIDVSDWIKNTEYTSGYEREDPVIQWFWEVVEDITQEERVLLLQFVTGSSRVPHGGFANIMGGSGLQNFTIAAVPYTPNLLPTSSTCINMLKLPEYPSKEILKDRLLVALHCGSYGYTMA
notes: HACE1, human, control phospho-mimetic variant compared with the wild-type dimer ('FL'); source: E. coli BL21(DE3), purified (IMAC, tag removal, SEC); not shown: His6 (pSKB2) or His10-tandem Z (pN-HZ10-ZZ(3)), N-terminal, cleaved
B3: HACE1 L704D (enzyme, human, UniProt Q8IYU2 1-909, looked up)
chain: MERAMEQLNRLTRSLRRARTVELPEDNETAVYTLMPMVMADQHRSVSELLSNSKFDVNYAFGRVKRSLLHIAANCGSVECLVLLLKKGANPNYQDISGCTPLHLAARNGQKKCMSKLLEYSADVNICNNEGLTAIHWLAVNGRTELLHDLVQHVSDVDVEDAMGQTALHVACQNGHKTTVQCLLDSGADINRPNVSGATPLYFACSHGQRDTAQILLLRGAKYLPDKNGVTPLDLCVQGGYGETCEVLIQYHPRLFQTIIQMTQNEDLRENMLRQVLEHLSQQSESQYLKILTSLAEVATTNGHKLLSLSSNYDAQMKSLLRIVRMFCHVFRIGPSSPSNGIDMGYNGNKTPRSQVFKPLELLWHSLDEWLVLIATELMKNKRDSTEITSILLKQKGQDQDAASIPPFEPPGPGSYENLSTGTRESKPDALAGRQEASADCQDVISMTANRLSAVIQAFYMCCSCQMPPGMTSPRFIEFVCKHDEVLKCFVNRNPKIIFDHFHFLLECPELMSRFMHIIKAQPFKDRCEWFYEHLHSGQPDSDMVHRPVNENDILLVHRDSIFRSSCEVVSKANCAKLKQGIAVRFHGEEGMGQGVVREWFDILSNEIVNPDYALFTQSADGTTFQPNSNSYVNPDHLNYFRFAGQILGLALNHRQLVNIYFTRSFYKHILGIPVNYQDVASIDPEYAKNLQWILDNDISDLGDELTFSVETDVFGAMEEVPLKPGGGSILVTQNNKAEYVQLVTELRMTRAIQPQINAFLQGFHMFIPPSLIQLFDEYELELLLSGMPEIDVSDWIKNTEYTSGYEREDPVIQWFWEVVEDITQEERVLLLQFVTGSSRVPHGGFANIMGGSGLQNFTIAAVPYTPNLLPTSSTCINMLKLPEYPSKEILKDRLLVALHCGSYGYTMA
notes: HACE1, human, full-length variant (HECT N-lobe); source: E. coli BL21(DE3), purified (IMAC, tag removal, SEC); not shown: His6 (pSKB2) or His10-tandem Z (pN-HZ10-ZZ(3)), N-terminal, cleaved
B4: HACE1 L15A (enzyme, human, UniProt Q8IYU2 1-909, looked up)
chain: MERAMEQLNRLTRSARRARTVELPEDNETAVYTLMPMVMADQHRSVSELLSNSKFDVNYAFGRVKRSLLHIAANCGSVECLVLLLKKGANPNYQDISGCTPLHLAARNGQKKCMSKLLEYSADVNICNNEGLTAIHWLAVNGRTELLHDLVQHVSDVDVEDAMGQTALHVACQNGHKTTVQCLLDSGADINRPNVSGATPLYFACSHGQRDTAQILLLRGAKYLPDKNGVTPLDLCVQGGYGETCEVLIQYHPRLFQTIIQMTQNEDLRENMLRQVLEHLSQQSESQYLKILTSLAEVATTNGHKLLSLSSNYDAQMKSLLRIVRMFCHVFRIGPSSPSNGIDMGYNGNKTPRSQVFKPLELLWHSLDEWLVLIATELMKNKRDSTEITSILLKQKGQDQDAASIPPFEPPGPGSYENLSTGTRESKPDALAGRQEASADCQDVISMTANRLSAVIQAFYMCCSCQMPPGMTSPRFIEFVCKHDEVLKCFVNRNPKIIFDHFHFLLECPELMSRFMHIIKAQPFKDRCEWFYEHLHSGQPDSDMVHRPVNENDILLVHRDSIFRSSCEVVSKANCAKLKQGIAVRFHGEEGMGQGVVREWFDILSNEIVNPDYALFTQSADGTTFQPNSNSYVNPDHLNYFRFAGQILGLALNHRQLVNIYFTRSFYKHILGIPVNYQDVASIDPEYAKNLQWILDNDISDLGLELTFSVETDVFGAMEEVPLKPGGGSILVTQNNKAEYVQLVTELRMTRAIQPQINAFLQGFHMFIPPSLIQLFDEYELELLLSGMPEIDVSDWIKNTEYTSGYEREDPVIQWFWEVVEDITQEERVLLLQFVTGSSRVPHGGFANIMGGSGLQNFTIAAVPYTPNLLPTSSTCINMLKLPEYPSKEILKDRLLVALHCGSYGYTMA
notes: HACE1, human, full-length variant; also called Leu15 substituted with alanine; source: E. coli BL21(DE3), purified (IMAC, tag removal, SEC); not shown: His6 (pSKB2) or His10-tandem Z (pN-HZ10-ZZ(3)), N-terminal, cleaved
B5: HACE1 L11A (enzyme, human, UniProt Q8IYU2 1-909, looked up)
chain: MERAMEQLNRATRSLRRARTVELPEDNETAVYTLMPMVMADQHRSVSELLSNSKFDVNYAFGRVKRSLLHIAANCGSVECLVLLLKKGANPNYQDISGCTPLHLAARNGQKKCMSKLLEYSADVNICNNEGLTAIHWLAVNGRTELLHDLVQHVSDVDVEDAMGQTALHVACQNGHKTTVQCLLDSGADINRPNVSGATPLYFACSHGQRDTAQILLLRGAKYLPDKNGVTPLDLCVQGGYGETCEVLIQYHPRLFQTIIQMTQNEDLRENMLRQVLEHLSQQSESQYLKILTSLAEVATTNGHKLLSLSSNYDAQMKSLLRIVRMFCHVFRIGPSSPSNGIDMGYNGNKTPRSQVFKPLELLWHSLDEWLVLIATELMKNKRDSTEITSILLKQKGQDQDAASIPPFEPPGPGSYENLSTGTRESKPDALAGRQEASADCQDVISMTANRLSAVIQAFYMCCSCQMPPGMTSPRFIEFVCKHDEVLKCFVNRNPKIIFDHFHFLLECPELMSRFMHIIKAQPFKDRCEWFYEHLHSGQPDSDMVHRPVNENDILLVHRDSIFRSSCEVVSKANCAKLKQGIAVRFHGEEGMGQGVVREWFDILSNEIVNPDYALFTQSADGTTFQPNSNSYVNPDHLNYFRFAGQILGLALNHRQLVNIYFTRSFYKHILGIPVNYQDVASIDPEYAKNLQWILDNDISDLGLELTFSVETDVFGAMEEVPLKPGGGSILVTQNNKAEYVQLVTELRMTRAIQPQINAFLQGFHMFIPPSLIQLFDEYELELLLSGMPEIDVSDWIKNTEYTSGYEREDPVIQWFWEVVEDITQEERVLLLQFVTGSSRVPHGGFANIMGGSGLQNFTIAAVPYTPNLLPTSSTCINMLKLPEYPSKEILKDRLLVALHCGSYGYTMA
notes: HACE1, human, full-length variant; also called Leu11 substituted with alanine; source: E. coli BL21(DE3), purified (IMAC, tag removal, SEC); not shown: His6 (pSKB2) or His10-tandem Z (pN-HZ10-ZZ(3)), N-terminal, cleaved
B6: HACE1 L8D (enzyme, human, UniProt Q8IYU2 1-909, looked up)
chain: MERAMEQDNRLTRSLRRARTVELPEDNETAVYTLMPMVMADQHRSVSELLSNSKFDVNYAFGRVKRSLLHIAANCGSVECLVLLLKKGANPNYQDISGCTPLHLAARNGQKKCMSKLLEYSADVNICNNEGLTAIHWLAVNGRTELLHDLVQHVSDVDVEDAMGQTALHVACQNGHKTTVQCLLDSGADINRPNVSGATPLYFACSHGQRDTAQILLLRGAKYLPDKNGVTPLDLCVQGGYGETCEVLIQYHPRLFQTIIQMTQNEDLRENMLRQVLEHLSQQSESQYLKILTSLAEVATTNGHKLLSLSSNYDAQMKSLLRIVRMFCHVFRIGPSSPSNGIDMGYNGNKTPRSQVFKPLELLWHSLDEWLVLIATELMKNKRDSTEITSILLKQKGQDQDAASIPPFEPPGPGSYENLSTGTRESKPDALAGRQEASADCQDVISMTANRLSAVIQAFYMCCSCQMPPGMTSPRFIEFVCKHDEVLKCFVNRNPKIIFDHFHFLLECPELMSRFMHIIKAQPFKDRCEWFYEHLHSGQPDSDMVHRPVNENDILLVHRDSIFRSSCEVVSKANCAKLKQGIAVRFHGEEGMGQGVVREWFDILSNEIVNPDYALFTQSADGTTFQPNSNSYVNPDHLNYFRFAGQILGLALNHRQLVNIYFTRSFYKHILGIPVNYQDVASIDPEYAKNLQWILDNDISDLGLELTFSVETDVFGAMEEVPLKPGGGSILVTQNNKAEYVQLVTELRMTRAIQPQINAFLQGFHMFIPPSLIQLFDEYELELLLSGMPEIDVSDWIKNTEYTSGYEREDPVIQWFWEVVEDITQEERVLLLQFVTGSSRVPHGGFANIMGGSGLQNFTIAAVPYTPNLLPTSSTCINMLKLPEYPSKEILKDRLLVALHCGSYGYTMA
notes: HACE1, human, full-length variant; source: E. coli BL21(DE3), purified (IMAC, tag removal, SEC); not shown: His6 (pSKB2) or His10-tandem Z (pN-HZ10-ZZ(3)), N-terminal, cleaved

Target: the molecule itself
Experiment: mass photometry; HACE1 samples at 20–40 nM in 25 mM HEPES (pH 8.0), 150 mM NaCl; One^MP mass photometer, BSA calibration

Binding result, binds:
B1
B2
B3
B4
B5
B6
